Reference: patent US20170051068A1 (Janssen / Centocor, published 2017)

T1: monomeric human BCMA (human, UniProt Q02223 1-54, limits assumed)
T1 construct: also called monomeric BCMA antigen
T1 sequence: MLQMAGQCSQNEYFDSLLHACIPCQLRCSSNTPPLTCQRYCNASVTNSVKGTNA

T2: Recombinant human BCMA-Fc fusion protein (R&D Systems catalog #193-BC-050) (human, UniProt Q02223 1-54)
T2 construct: also called hBCMA-Fc; Fc-BCMA Hu; not shown: Fc part of the bought fusion protein
T2 sequence: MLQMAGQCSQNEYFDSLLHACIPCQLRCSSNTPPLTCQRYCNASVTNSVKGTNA

B1: BCMB123 (antibody, human IgG4 S228P, lambda, F234A L235A, V domains shown)
VH: QLQLQESGPGLVKPSETLSLTCTVSGGSISSSSYFWGWIRQPPGKGLEWIGSIYYSGITYYNPSLKSRVTISVDTSKNQFSLKLSSVTAADTAVYYCARHDGAVAGLFDYWGQGTLVTVSS
VL: SYVLTQPPSVSVAPGQTARITCGGNNIGSKSVHWYQQPPGQAPVVVVYDDSDRPSGIPERFSGSNSGNTATLTISRVEAGDEAVYYCQVWDSSSDHVVFGGGTKLTVLG
notes: IgG4 S228P, L234A, L235A; also called BCBM123
B2: BCMB128 (antibody, human IgG4 S228P, lambda, F234A L235A, V domains shown)
VH: QLQLQESGPGLVKPSETLSLTCTVSGGSISSGSYFWGWIRQPPGKGLEWIGSIYYSGITYYNPSLKSRVTISVDTSKNQFSLKLSSVTAADTAVYYCARHDGATAGLFDYWGQGTLVTVSS
VL: SYVLTQPPSVSVAPGQTARITCGGNNIGSKSVHWYQQPPGQAPVVVVYDDSDRPSGIPERFSGSNSGNTATLTISRVEAGDEAVYYCQVWDSSSDHVVFGGGTKLTVLG
notes: IgG4 S228P, L234A, L235A; also called BCBM128
B3: BCMB129 (antibody, human IgG4 S228P, lambda, F234A L235A, V domains shown)
VH: QLQLQESGPGLVKPSETLSLTCTVSGGSISSGSYFWGWIRQPPGKGLEWIGSIYYSGSTYYNPSLKSRVTISVDTSKNQFSLKLSSVTAADTAVYYCARHDGAVAGLFDYWGQGTLVTVSS
VL: SYVLTQPPSVSVAPGQTARITCGGNNIGSKSVHWYQQPPGQAPVVVVYDDSDRPSGIPERFSGSNSGNTATLTISRVEAGDEAVYYCQVWDSSSDHVVFGGGTKLTVLG
notes: IgG4 S228P, L234A, L235A; also called BCBM129
B4: BCMB176 (antibody, human IgG4 S228P, lambda, F234A L235A, V domains shown)
VH: QLQLQESGPGLVKPSETLSLTCTVSGGSISSSSYFWGWIRQPPGKGLEWIGSIYYSGITYYNPSLKSRVTISVDTSKNQFSLKLSSVTAADTAVYYCARHDGATAGLFDYWGQGTLVTVSS
VL: SYVLTQPPSVSVAPGQTARITCGGNNIGSKSVHWYQQPPGQAPVVVVYDDSDRPSGIPERFSGSNSGNTATLTISRVEAGDEAVYYCQVWDSSSDHVVFGGGTKLTVLG
notes: IgG4 S228P, L234A, L235A; also called BCBM176
B5: BCMB177 (antibody, human IgG4 S228P, lambda, F234A L235A, V domains shown)
VH: QLQLQESGPGLVKPSETLSLTCTVSGGSISSSSYFWGWIRQPPGKGLEWIGSIYYSGRTYYNPSLKSRVTISVDTSKNQFSLKLSSVTAADTAVYYCARHDGATAGLFDYWGQGTLVTVSS
VL: SYVLTQPPSVSVAPGQTARITCGGNNIGSKSVHWYQQPPGQAPVVVVYDDSDRPSGIPERFSGSNSGNTATLTISRVEAGDEAVYYCQVWDSSSDHVVFGGGTKLTVLG
notes: IgG4 S228P, L234A, L235A; also called BCBM177
B6: BC3B8 (BCMA×CD3 bispecific antibody, BCMB123 × CD3B219) (bispecific antibody, human IgG4 S228P, lambda, F234A L235A)
heavy 1: EVQLVESGGGLVQPGGSLRLSCAASGFTFNTYAMNWVRQAPGKGLEWVARIRSKYNNYATYYAASVKGRFTISRDDSKNSLYLQMNSLKTEDTAVYYCARHGNFGNSYVSWFAYWGQGTLVTVSSASTKGPSVFPLAPCSRSTSESTAALGCLVKDYFPEPVTVSWNSGALTSGVHTFPAVLQSSGLYSLSSVVTVPSSSLGTKTYTCNVDHKPSNTKVDKRVESKYGPPCPPCPAPEAAGGPSVFLFPPKPKDTLMISRTPEVTCVVVDVSQEDPEVQFNWYVDGVEVHNAKTKPREEQFNSTYRVVSVLTVLHQDWLNGKEYKCKVSNKGLPSSIEKTISKAKGQPREPQVYTLPPSQEEMTKNQVSLTCLVKGFYPSDIAVEWESNGQPENNYKTTPPVLDSDGSFLLYSKLTVDKSRWQEGNVFSCSVMHEALHNHYTQKSLSLSLGK
light 1: QTVVTQEPSLTVSPGGTVTLTCRSSTGAVTTSNYANWVQQKPGQAPRGLIGGTNKRAPGTPARFSGSLLGGKAALTLSGVQPEDEAEYYCALWYSNLWVFGGGTKLTVLGQPKAAPSVTLFPPSSEELQANKATLVCLISDFYPGAVTVAWKADSSPVKAGVETTTPSKQSNNKYAASSYLSLTPEQWKSHRSYSCQVTHEGSTVEKTVAPTECS
heavy 2: not shown
light 2: SYVLTQPPSVSVAPGQTARITCGGNNIGSKSVHWYQQPPGQAPVVVVYDDSDRPSGIPERFSGSNSGNTATLTISRVEAGDEAVYYCQVWDSSSDHVVFGGGTKLTVLGQPKAAPSVTLFPPSSEELQANKATLVCLISDFYPGAVTVAWKADSSPVKAGVETTTPSKQSNNKYAASSYLSLTPEQWKSHRSYSCQVTHEGSTVEKTVAPTECS
notes: IgG4 made by Fab arm exchange; also called B123 × B219
B7: BC3B10 (BCMA×CD3 bispecific antibody, BCMB129 × CD3B219) (bispecific antibody, human IgG4 S228P, lambda, F234A L235A)
heavy 1: EVQLVESGGGLVQPGGSLRLSCAASGFTFNTYAMNWVRQAPGKGLEWVARIRSKYNNYATYYAASVKGRFTISRDDSKNSLYLQMNSLKTEDTAVYYCARHGNFGNSYVSWFAYWGQGTLVTVSSASTKGPSVFPLAPCSRSTSESTAALGCLVKDYFPEPVTVSWNSGALTSGVHTFPAVLQSSGLYSLSSVVTVPSSSLGTKTYTCNVDHKPSNTKVDKRVESKYGPPCPPCPAPEAAGGPSVFLFPPKPKDTLMISRTPEVTCVVVDVSQEDPEVQFNWYVDGVEVHNAKTKPREEQFNSTYRVVSVLTVLHQDWLNGKEYKCKVSNKGLPSSIEKTISKAKGQPREPQVYTLPPSQEEMTKNQVSLTCLVKGFYPSDIAVEWESNGQPENNYKTTPPVLDSDGSFLLYSKLTVDKSRWQEGNVFSCSVMHEALHNHYTQKSLSLSLGK
light 1: QTVVTQEPSLTVSPGGTVTLTCRSSTGAVTTSNYANWVQQKPGQAPRGLIGGTNKRAPGTPARFSGSLLGGKAALTLSGVQPEDEAEYYCALWYSNLWVFGGGTKLTVLGQPKAAPSVTLFPPSSEELQANKATLVCLISDFYPGAVTVAWKADSSPVKAGVETTTPSKQSNNKYAASSYLSLTPEQWKSHRSYSCQVTHEGSTVEKTVAPTECS
heavy 2: not shown
light 2: SYVLTQPPSVSVAPGQTARITCGGNNIGSKSVHWYQQPPGQAPVVVVYDDSDRPSGIPERFSGSNSGNTATLTISRVEAGDEAVYYCQVWDSSSDHVVFGGGTKLTVLGQPKAAPSVTLFPPSSEELQANKATLVCLISDFYPGAVTVAWKADSSPVKAGVETTTPSKQSNNKYAASSYLSLTPEQWKSHRSYSCQVTHEGSTVEKTVAPTECS
notes: IgG4 made by Fab arm exchange; also called B129 × B219

Legend:
monomeric human BCMA [1] = molecular target: T1, monomeric human BCMA; assay: SPR, monomeric human BCMA
monomeric human BCMA [2] = molecular target: T1, monomeric human BCMA; assay: SPR
[3] = molecular target: T3, Fc-fusion cyno BCMA (in-house; Cat# BCMW6.001) (cyno, UniProt Q02223 1-54 (human entry)); assay: SPR, Fc-BCMA, two-state model, step 1 (koff1); first step (koff1)
T3 construct: also called Fc-BCMA Cy; cyno Fc-BCMA; not shown: Fc part

[4] = molecular target: T2, Recombinant human BCMA-Fc fusion …; assay: as above
[5] = molecular target: T3, Fc-fusion cyno BCMA (in-house; Cat# …); assay: SPR, Fc-BCMA, two-state model, step 2
[6] = molecular target: T2, Recombinant human BCMA-Fc fusion …; assay: SPR, Fc-BCMA, two-state model, step 2
[7] = molecular target: T3, Fc-fusion cyno BCMA (in-house; Cat# …); assay: SPR, Fc-BCMA, two-state model, first complex
[8] = molecular target: T2, Recombinant human BCMA-Fc fusion …; assay: SPR, Fc-BCMA, two-state model, first complex
[9] = molecular target: T3, Fc-fusion cyno BCMA (in-house; Cat# …); assay: SPR, Fc-BCMA, two-state model, Final KD; Final complex KD, two-state model
[10] = molecular target: T2, Recombinant human BCMA-Fc fusion …; assay: as above
[11] = molecular target: T3, Fc-fusion cyno BCMA (in-house; Cat# …); assay: SPR, Fc-BCMA, two-state model, step 1 (kon1); first step (kon1)
[12] = molecular target: T2, Recombinant human BCMA-Fc fusion …; assay: as above

| Binder | Kd (monomeric human BCMA [1]) | koff (monomeric human BCMA [1]) | kon (monomeric human BCMA [1]) | fold weaker affinity than BCMB69 (monomeric human BCMA [2]) | koff [3] | koff [4] | koff2 [5] | kon2 [5] | koff2 [6] | kon2 [6] | KD1 [7] | KD1 [8] | Kd [9] | Kd [10] | kon [11] | kon [12] |
| --- | --- | --- | --- | --- | --- | --- | --- | --- | --- | --- | --- | --- | --- | --- | --- | --- |
| B1 | 5.12 nM | 0.011 s⁻¹ | 2.14e+06 M⁻¹ s⁻¹ | 3 to 15 fold |  |  |  |  |  |  |  |  |  |  |  |  |
| B2 | 2.07 nM | 0.0087 s⁻¹ | 4.2e+06 M⁻¹ s⁻¹ |  |  |  |  |  |  |  |  |  |  |  |  |  |
| B3 | 5.47 nM | 0.00843 s⁻¹ | 1.54e+06 M⁻¹ s⁻¹ |  |  |  |  |  |  |  |  |  |  |  |  |  |
| B4 | 7.18 nM | 0.0288 s⁻¹ | 4e+06 M⁻¹ s⁻¹ |  |  |  |  |  |  |  |  |  |  |  |  |  |
| B5 | 20.2 nM | 0.0566 s⁻¹ | 2.8e+06 M⁻¹ s⁻¹ | 3 to 15 fold |  |  |  |  |  |  |  |  |  |  |  |  |
| B6 |  |  |  |  | 0.00734 s⁻¹ | 0.00123 s⁻¹ | 0.000326 s⁻¹ | 0.00194 s⁻¹ | 0.000594 s⁻¹ | 0.00313 s⁻¹ | 6.77 nM | 0.91 nM | 0.97 nM | 0.14 nM | 1.09e+06 M⁻¹ s⁻¹ | 1.35e+06 M⁻¹ s⁻¹ |
| B7 |  |  |  |  | 0.00636 s⁻¹ | 0.00155 s⁻¹ | 0.000359 s⁻¹ | 0.00165 s⁻¹ | 0.000531 s⁻¹ | 0.00453 s⁻¹ | 6.84 nM | 1.5 nM | 1.22 nM | 0.16 nM | 930000 M⁻¹ s⁻¹ | 1.02e+06 M⁻¹ s⁻¹ |
